Experiments:
GRB2 = GRB2 (UniProt P62993); assay: FLAG affinity purification, Western blot; details: reference: wild type
PTPN11/SHP2 = PTPN11/SHP2 (UniProt Q06124); assay: FLAG affinity purification, Western blot; details: reference: wild type; sites Y241,Y263

Substance: MPZL1 (PZR) (from UniProt O95297) Y241F
- binding against the reference (GRB2; sites Y241): weaker

Substance: MPZL1 (PZR) (from UniProt O95297) Y241F/Y263F
- binding against the reference (PTPN11/SHP2): lost

Substance: MPZL1 (PZR) (from UniProt O95297) Y263F
- binding against the reference (GRB2; sites Y263): weaker

Reference: paper PMC5599542
